Substrate: O=c1ccn([C@@H]2O[C@H](COP(=O)(O)OP(=O)(O)O[C@H]3O[C@H](CO)[C@H](O)[C@H](O)[C@H]3O)[C@@H](O)[C@H]2O)c(=O)[nH]1
Assay: purified protein
Type: biochemical, Oryza sativa
Settings: 30°C, 100 mM glycine buffer pH 8.7, 1 mM NAD+, UDP-Gal varied 0.4-3.2 mM

B1: PHD1 (PHOTO… …1) (Oryza sativa Japonica Group) (protein)
chain: DDTGVKMAGSDIVGKNDLLIVGPGVLGRLVAEKWQEEHPGCKVFGQTASTDHHNELSNIGIIPSLKGSTFPQKVPYVIFCAPPSRSDDYPGDVRVAASNWTGEGSFVFTSSTALYDCSDNELCNEDCPSVPIGRSPRTDVLLKAENVVLEAGGCVLRLAGLYKIDRGAHFFWLRKGTLDTRPDHIINQIHYEDAASLAIAIMKKGHRGRIFLGCDNKPLSRQEIMDSVNRSGKFDTKFQGFTGTDGPLGKKMENSRTRSEIGWEPKYPSFTEFLGLDS
notes: mature protein without putative N-terminal 62-aa chloroplast transit peptide (full length 340 aa); expressed in E. coli; pGEX-4T-1 (GST) in BL21(DE3), glutathione Sepharose purified (described for antibody production)
Which Km does the source give for B1 here?
Its Km is 840 µM.

From paper PMC3145628, “A Rice Plastidial Nucleotide Sugar Epimerase Is Involved in Galactolipid Biosynthesis and Improves Photosynthetic Efficiency” (PLoS Genetics, 2011)
